{"source": "patent US20110214193A1", "about": "“BIOMARKER FOR MICRODOMAIN DISEASE” (SUMITOMO CHEMICAL COMPANY, LIMITED, priority 2008, published 2011)", "format_in_all_cases": "cell-based", "key": {"[1]": {"system": "differentiated mouse adipocyte cell line 3T3-L1", "assay": "Enhancing action by anti-GM2A antibody and ligand on glucose uptake (2-deoxyglucose incorporation)", "protocol": "(§1) Mouse adipocyte cell line 3T3-L1 was purchased from Health Science Research Resources Bank. Cells of the purchased mouse adipocyte cell line […] were cultured in a D-MEM containing 10% fetal bovine serum (hereinafter referred to as D-MEM (10)) at 37° C. under an atmosphere of 5% CO2. The cultured cells were plated on a 6-well plate. Two days after becoming confluent, the culture solution was exchanged for a pre-differentiation culture solution (D-MEM (10) containing 1 μg/ml insulin, 0.5 mM 3-isobutyl-1-methylxanthine, and 1 μM dexamethasone), and the culture was further cultured for another 4 days. […] Here, the protein concentration of the specimen was measured using BCA Protein Assay Reagent (catalogue No. 23228, Pierce) using bovine serum albumin as a standard protein.\nThe amount of 2-deoxyglucose in the specimen was quantitatively determined according to the following method. To a plate for fluorescence measurement, were added 100 μl of an assay buffer (50 mM triethanolamine (pH 8.1), 50 mM KCl, 0.5 mM MgCl2, 0.02% bovine serum albumin, 670 μM ATP, 0.12 μM NADP^+, 25 μM resazurin, 5.5 units/ml hexokinase, 16 units/ml G6PDH, 1 units/ml diaphorase) and 100 μl of the specimen. After keeping the obtained mixture at 37° C. for 90 minutes, the fluorescence intensity of the obtained mixture was measured (excitation wavelength: 530 nm, detection wavelength: 595 nm). […]"}, "[2]": {"system": "rat pheochromocytoma cell line PC12", "assay": "Inhibition by GM2A protein of NGF intracellular signaling (Akt phosphorylation, Western blot)", "details": "for Phosphorylated Akt/Akt: NGF + (0.1 μg/ml, 10 minutes), 24 hours, no NGF = 1.0, NGF alone = 1.8", "protocol": "(§2) Mouse skeletal muscle cell line C2C12 (CRL-1772) and rat pheochromocytoma cell line PC12 (CRl-1721) were purchased from ATCC. Cells of the both cell lines were cultured in a D-MEM medium containing 10% inactivated fetal bovine serum (catalogue No. 14247-15, NACALAI TESQUE, INC.) at 37° C. under an atmosphere of 5% CO2. Cells of differentiated mouse skeletal muscle cell line C2C12 were prepared by exchanging the medium for a D-MEM containing 2% inactivated equine serum and culturing the mixture for […].\n(§3) Human GM2A protein was prepared as follows. First, a cDNA was prepared from human lung cancer cell line HARA-B (catalogue No. JCRB1080.1, Health Science Research Resources Bank), using oligo(dT). Using the prepared cDNA, a PCR fragment containing the full length of human GM2A gene was obtained. The obtained PCR fragment was inserted into pET24a vector (catalogue No. 69749-3, Novagen), whereby human GM2A/pET24a plasmid was prepared. Next, after human GM2A/pET24a was added to Escherichia coli BL21 (DE3) pLysS (catalogue No. 69451-4, Novagen) to transform the Escherichia coli, the obtained Escherichia coli was cultured on shaking in an LB medium containing 50 μg/ml kanamycin at 37° C. until OD600=about 0.5. Then, after Isopropyl-β-thiogalactopyranoside (catalogue No. 9030, Takara Bio Inc.) was added to the obtained culture so that the final concentration could be 0.5 mM, the culture was further cultured on shaking at 18° C. for 3 hours. Bacterial cells were collected by centrifuging the obtained culture, and the collected bacterial cells were sonicated. Then, the obtained homogenate was centrifuged at 11,000 rpm for 30 minutes. After Ni-NTA agarose (catalogue No. 1018244, Qiagen) was added to the obtained supernatant and left at 4° C. for 2 hours, the obtained left object was washed 5 times. From the obtained washed object, an elution fraction of a protein was obtained by elution of a protein with 250 mM imidazole. The obtained elution fraction was purified by anion exchange chromatography HiTrapQ HP, whereby human GM2A protein was prepared. […]"}, "[3]": {"system": "undifferentiated mouse skeletal muscle cell line C2C12", "assay": "Inhibition by GM2A protein of leptin intracellular signaling (AMPK alpha phosphorylation, Western blot)", "details": "for Phosphorylated AMPK alpha/AMPK alpha: Leptin + (0.1 μg/ml, 30 minutes), 24 hours, no leptin = 1.0, leptin alone = 1.9", "protocol": "as §2, §3"}, "[4]": {"system": "differentiated mouse skeletal muscle cell line C2C12", "assay": "Inhibition by GM2A protein of insulin intracellular signaling (Akt phosphorylation, Western blot)", "details": "for Phosphorylated Akt/Akt: Insulin + (1 μg/ml, 10 minutes), 24 hours, no insulin = 1.0, insulin alone = 2.1", "protocol": "as §2, §3"}, "[5]": {"system": "mouse adipocyte cell line 3T3-L1", "assay": "Inhibitory action by GM2A protein on glucose uptake (2-deoxyglucose incorporation)", "details": "for Amount of 2-Deoxyglucose: relative value per amount of protein, Insulin +, no insulin = 100, insulin alone = 215", "protocol": "as §1, with “days. Next, after the pre-differentiation culture solution was exchanged for a post-differentiation culture solution (D-MEM (10) containing 1 insulin) and the culture was cultured for 3 days, the culture solution was exchanged for a D-MEM (10) containing mouse GM2A protein, and the culture was further cultured for another day.” for “days.”\nThe amount of 2-deoxyglucose in the specimen was quantitatively determined according to the following method. To a plate for fluorescence measurement, were added 100 μl of an assay buffer (50 mM triethanolamine (pH 8.1), 50 mM KCl, 0.5 mM MgCl2, 0.02% bovine serum albumin, 670 μM ATP, 0.12 μM NADP^+, 25 μM resazurin, 5.5 units/ml hexokinase, 16 units/ml G6PDH, 1 units/ml diaphorase) and 100 μl of the specimen. After keeping the obtained mixture at 37° C. for 90 minutes, the fluorescence intensity of the obtained mixture was measured (excitation wavelength: 530 nm, detection wavelength: 595 nm). A calibration curve was created using 2-deoxyglucose of 500 μM, 250 μM, 125 μM and 0 μM (purified water) as a standard, and quantitative determination was carried out on the basis of the calibration curve. The amount of 2-deoxyglucose incorporated into a cell per the amount of protein of the specimen was calculated as a relative value."}, "[6]": {"details": "concentration-dependent, 2 and 4 μg/ml"}}}
{"molecule": "ganglioside GM2", "values": [{"measurement": "intracellular incorporation of 2-deoxyglucose", "setting": "[1]", "result": "enhanced"}, {"measurement": "Amount of 2-Deoxyglucose", "setting": "[1]; relative value, 1 μM, 1 day, DMSO = 100", "result": 120}]}
{"molecule": "GM2AP: Human GM2A protein expressed in Escherichia coli from human GM2A/pET24a, purified by Ni-NTA agarose and anion exchange chromatography (protein) HLKKPSQLSSFSWDNCDEGKDPAVIRSLTLEPDPIIVPGNVTLSVMGSTSVPLSSPLKVDLVLEKEVAGLWIKIPCTDYIGSCTFEHFCDVLDMLIPTGEPCPEPLRTYGLPCHCPFKEGTYSLPKSEFVVPDLELPSWLTTGNYRIESVLSSSGKRLGCIKIAASLKGI", "values": [{"measurement": "Phosphorylated Akt/Akt", "setting": "[2]; GM2AP 2 μg/ml", "result": 1.5}, {"measurement": "Phosphorylated Akt/Akt", "setting": "[2]; GM2AP 4 μg/ml", "result": 1.4}, {"measurement": "Phosphorylated AMPK alpha/AMPK alpha", "setting": "[3]; GM2AP 2 μg/ml", "result": 1.0}, {"measurement": "Phosphorylated AMPK alpha/AMPK alpha", "setting": "[3]; GM2AP 4 μg/ml", "result": 0.9}, {"measurement": "Phosphorylated Akt/Akt", "setting": "[4]; GM2AP 2 μg/ml", "result": 1.8}, {"measurement": "Phosphorylated Akt/Akt", "setting": "[4]; GM2AP 4 μg/ml", "result": 1.2}]}
{"molecule": "GM2A Protein: mouse GM2A protein added to the culture solution of 3T3-L1 cells in Example 8 (protein) ARLVPKRLSQLGGFSWDNCDEGKDPAVIKSLTIQPDPIVVPGDVVVSLEGKTSVPLTAPQKVELTVEKEVAGFWVKIPCVEQLGSCSYENICDLIDEYIPPGESCPEPLHTYGLPCHCPFKEGTYSLPTSNFTVPDLELPSWLSTGNYRIQSILSSGGKRLGCIKIAASLKGR", "values": [{"measurement": "enhancing action by insulin on intracellular incorporation of 2-deoxyglucose", "setting": "[5]; concentration-dependent, 2 and 10 μg/ml", "result": "inhibited"}, {"measurement": "Amount of 2-Deoxyglucose", "setting": "[5]; GM2A Protein 2 μg/ml", "result": 184}, {"measurement": "Amount of 2-Deoxyglucose", "setting": "[5]; GM2A Protein 10 μg/ml", "result": 156}, {"measurement": "intracellular signaling of NGF", "setting": "[2]; [6]", "result": "inhibited"}, {"measurement": "intracellular signaling of leptin", "setting": "[3]; [6]", "result": "inhibited"}, {"measurement": "intracellular signaling of insulin", "setting": "[4]; [6]", "result": "inhibited"}]}
